Test results reported in patent US20190135908A1 (Novartis, published 2019).

Tests used:
[1] = target: T1, Mouse His-GDF15: HIS-tagged mouse GDF15 (mouse, UniProt Q9Z0J7 189-303); assay: Biacore SPR, IgG captured via anti-human Fc, GDF15 in flow
T1 construct: not shown: His tag
T1 sequence (looked up): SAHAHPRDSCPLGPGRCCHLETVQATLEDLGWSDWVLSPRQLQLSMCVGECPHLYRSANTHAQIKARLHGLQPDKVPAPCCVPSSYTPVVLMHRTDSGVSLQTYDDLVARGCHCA
Description: (§1) Biacore assay is based on surface plasmon resonance (SPR) and were used to determine the binding affinity of antibodies to GDF15.
(§2) Anti-human Fc capture antibody was immobilized at 0.5 μg/ml on CMS chip in all four flow cells to achieve 8000 to 12,000 resonance units (RU) on the surface. Anti-hGDF15 antibodies were captured at flow rate […], at 0.25 to 0.5 μg/ml on the chip to get about 30 RU in flow cells 2, 3 and 4. GDF15 ligand was flowed at […] over captured antibodies and reference flow cell 1 for 600 and 1200 seconds contact time. Eight doses serially diluted 1 to 2, ranging from 20 to 0.156 nM, were tested. All cycles were repeated twice, regenerated between cycles with 3M MgCl₂ at flow […], 20 seconds contact time. Data were normalized by subtracting reference flow cell results. Data were fit with 1:1 Kinetics model with RI (bulk refractive index) set constant at 0.

[2] = target: T2, Human GDF15 native: naturally produced human GDF15 purchased from Peprotech (human, UniProt Q99988 195-308); assay: as above
T2 construct: Bought protein
T2 sequence: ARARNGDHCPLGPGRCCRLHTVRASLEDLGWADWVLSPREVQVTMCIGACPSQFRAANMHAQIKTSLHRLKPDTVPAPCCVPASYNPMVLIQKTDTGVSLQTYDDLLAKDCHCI
Description: as §1, §2

[3] = target: T3, Rat GDF15 HIS: HIS-tagged rat GDF15 (rat, UniProt Q9Z0J6 189-303, limits assumed); assay: as above
T3 construct: also called Rat His-GDF15; not shown: His tag
T3 sequence (looked up): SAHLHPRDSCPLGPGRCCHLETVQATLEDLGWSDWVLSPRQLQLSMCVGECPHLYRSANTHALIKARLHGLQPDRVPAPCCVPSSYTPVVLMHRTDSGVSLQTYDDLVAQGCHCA
Description: as §1, §2

[4] = target: T4, Cyno His-GDF15: HIS-tagged cyno GDF15 (cynomolgus, UniProt G7PWZ3 197-308, limits assumed); assay: as above
T4 construct: not shown: His tag
T4 sequence (looked up): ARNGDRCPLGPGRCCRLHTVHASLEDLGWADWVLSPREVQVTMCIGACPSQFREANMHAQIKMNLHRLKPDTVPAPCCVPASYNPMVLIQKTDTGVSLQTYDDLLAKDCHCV
Description: as §1, §2

[5] = target: T5, Human His-GDF15: HIS-tagged human GDF15 (human, UniProt Q99988 195-308); assay: as above
T5 construct: not shown: His tag
T5 sequence: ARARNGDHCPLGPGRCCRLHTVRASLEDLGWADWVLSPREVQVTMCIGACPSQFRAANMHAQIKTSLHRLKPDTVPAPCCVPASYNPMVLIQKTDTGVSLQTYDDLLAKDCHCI
Description: as §1, §2

[6] = target: T6, GDF15 mutant S278R (back-of-hand), albumin fusion (human, UniProt Q99988 195-308); assay: direct ELISA on coated albumin-fusion GDF15 variant
T6 construct: not shown: albumin fusion partner
T6 chain: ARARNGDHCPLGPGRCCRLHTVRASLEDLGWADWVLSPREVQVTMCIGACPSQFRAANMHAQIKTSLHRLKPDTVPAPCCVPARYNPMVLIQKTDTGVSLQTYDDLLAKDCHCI
Description: (§3) Antibody epitope was determined by a direct ELISA method with GDF15 mutants. Albumin fusion GDF15 mutants were coated in wells of a 96-well EIA plate. After blocking, serially diluted anti-hGDF15 human antibodies were added to the GDF15-coated wells, followed by incubation at an ambient temperature for a few hours. Antibody binding was detected using an anti-human IgG antibody conjugated with horseradish peroxidase (HRP) and HRP substrate.

[7] = target: T7, GDF15 mutant D289R (finger tip region), albumin fusion (human, UniProt Q99988 195-308); assay: as above
T7 construct: not shown: albumin fusion partner
T7 chain: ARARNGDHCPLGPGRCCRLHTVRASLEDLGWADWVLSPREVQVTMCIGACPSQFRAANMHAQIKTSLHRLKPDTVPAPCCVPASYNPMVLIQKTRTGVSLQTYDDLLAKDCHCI
Description: as §3

[8] = target: T8, GDF15 mutant M253R (wrist region), albumin fusion (human, UniProt Q99988 195-308); assay: as above
T8 construct: not shown: albumin fusion partner
T8 chain: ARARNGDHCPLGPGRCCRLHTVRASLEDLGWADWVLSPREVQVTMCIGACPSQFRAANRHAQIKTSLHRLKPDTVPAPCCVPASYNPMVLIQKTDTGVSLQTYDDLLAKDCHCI
Description: as §3

[9] = target: T9, GDF15 mutant Q247R (wrist region), albumin fusion (human, UniProt Q99988 195-308); assay: as above
T9 construct: not shown: albumin fusion partner
T9 chain: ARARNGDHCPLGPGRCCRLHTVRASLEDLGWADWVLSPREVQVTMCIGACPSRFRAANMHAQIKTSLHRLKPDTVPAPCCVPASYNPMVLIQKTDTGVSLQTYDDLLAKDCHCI
Description: as §3

[10] = target: T10, GDF15 mutant W228R (wrist region), albumin fusion (human, UniProt Q99988 195-308); assay: as above
T10 construct: not shown: albumin fusion partner
T10 chain: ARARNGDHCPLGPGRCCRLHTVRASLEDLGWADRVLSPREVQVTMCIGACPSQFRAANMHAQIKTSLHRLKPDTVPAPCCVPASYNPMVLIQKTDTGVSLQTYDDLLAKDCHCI
Description: as §3

[11] = target: T11, GDF15 mutant S231R (knuckle region), albumin fusion (human, UniProt Q99988 195-308); assay: direct ELISA: albumin fusion GDF15 mutant coated on the plate, serially diluted antibody, anti-human IgG-HRP detection
T11 construct: not shown: albumin fusion partner
T11 chain: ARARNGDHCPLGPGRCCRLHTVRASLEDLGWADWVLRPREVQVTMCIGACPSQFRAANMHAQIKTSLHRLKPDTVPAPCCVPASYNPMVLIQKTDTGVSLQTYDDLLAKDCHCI
Description: as §3

[12] = target: T12, GDF15 mutant I285R (knuckle region), albumin fusion (human, UniProt Q99988 195-308); assay: direct ELISA on coated albumin-fusion GDF15 mutant
T12 construct: not shown: albumin fusion partner
T12 chain: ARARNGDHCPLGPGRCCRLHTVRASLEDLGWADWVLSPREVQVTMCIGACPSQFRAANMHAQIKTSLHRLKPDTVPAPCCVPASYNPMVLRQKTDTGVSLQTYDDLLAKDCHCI
Description: as §3

[13] = target: T13, GDF15 mutant L294R (knuckle region), albumin fusion (human, UniProt Q99988 195-308); assay: direct ELISA on coated albumin-fusion GDF15 mutant
T13 construct: not shown: albumin fusion partner
T13 chain: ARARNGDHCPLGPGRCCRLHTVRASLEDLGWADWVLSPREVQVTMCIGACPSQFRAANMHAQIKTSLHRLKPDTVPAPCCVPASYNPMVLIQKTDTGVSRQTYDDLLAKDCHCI
Description: as §3

[14] = target: T2, Human GDF15 native: naturally produced …; assay: Biacore SPR (rounded from Table 2, human GDF15 native); Biacore, not SET
Description: as §2

[15] = target: T2, Human GDF15 native: naturally produced …; assay: Biacore SPR (rounded from Table 2, human GDF15 native)
Description: as §2

[16] = target: T14, human GDF15 (target of the SET measurements; form not stated) (human, UniProt Q99988 195-308, limits assumed); assay: solution equilibrium titration (SET); SET, not Biacore
T14 sequence: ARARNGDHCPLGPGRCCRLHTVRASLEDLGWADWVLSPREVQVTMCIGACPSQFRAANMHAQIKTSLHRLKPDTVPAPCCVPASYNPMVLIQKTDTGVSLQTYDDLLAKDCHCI

B1: ABGDF15-A (antibody, human IgG1, kappa, V domains shown)
VH: EVQLVQSGAEVKKPGESLKISCKGSGYSFTDYWISWVRQMPGKGLEWMGIIDPSGSYTIYSPSFQGQVTISADKSISTAYLQWSSLKASDTAMYYCARVSYYGGYFDIWGQGTLVTVSS
VL: DIQMTQSPSSLSASVGDRVTITCRASQSISNNLNWYQQKPGKAPKLLIYAASNLQSGVPSRFSGSGSGTDFTLTISSLQPEDFATYYCFQLDHSPFTFGQGTKVEIKR
notes: captured through anti-human Fc in the Biacore assay
- Kd [1]: 56.8 pM
- koff [1]: 0.000613 s⁻¹
- kon [1]: 1.08e+07 M⁻¹ s⁻¹
- Kd [2]: 11.3 pM
- koff [2]: 0.000374 s⁻¹
- kon [2]: 3.3e+07 M⁻¹ s⁻¹
- Kd [3]: 23.2 pM
- koff [3]: 0.000451 s⁻¹
- kon [3]: 1.95e+07 M⁻¹ s⁻¹
- Kd [4]: 13.4 pM
- koff [4]: 0.000278 s⁻¹
- kon [4]: 2.07e+07 M⁻¹ s⁻¹
- Kd [5]: 2.62 pM
- koff [5]: 0.000247 s⁻¹
- kon [5]: 9.42e+07 M⁻¹ s⁻¹
- binding result [6]: binds
- binding result [7]: binds
- binding result [8]: binds
- binding result [9]: binds
- binding result [10]: binds
- binding result [11]: binds
- binding result [12]: no binding
- binding result [13]: no binding
- Kd [14]: 11 pM

B2: ABGDF15-G (antibody, human IgG1, kappa, V domains shown)
VH: QVQLVQSGAEVKKPGSSVKVSCKASGGTFSSHYINWVRQAPGQGLEWMGGIIPAFGGANYAQKFQGRVTITADESTSTAYMELSSLRSEDTAVYYCARFGSVYVSRYSSYYHMDVWGQGTLVTVSS
VL: DIQMTQSPSSLSASVGDRVTITCRASQTIYRSLAWYQQKPGKAPKLLIYGASILQSGVPSRFSGSGSGTDFTLTISSLQPEDFATYYCLQRYTSPFTFGQGTKVEIKR
notes: as for B1
- Kd [1]: 154 pM
- koff [1]: 0.000343 s⁻¹
- kon [1]: 2.23e+06 M⁻¹ s⁻¹
- Kd [2]: 88.2 pM
- koff [2]: 0.000512 s⁻¹
- kon [2]: 5.8e+06 M⁻¹ s⁻¹
- Kd [3]: 138 pM
- koff [3]: 0.000365 s⁻¹
- kon [3]: 2.63e+06 M⁻¹ s⁻¹
- Kd [4]: 120 pM
- koff [4]: 0.000694 s⁻¹
- kon [4]: 5.79e+06 M⁻¹ s⁻¹
- Kd [5]: 136 pM
- koff [5]: 0.000533 s⁻¹
- kon [5]: 3.9e+06 M⁻¹ s⁻¹
- Kd [15]: 88 pM
- binding result [6]: binds
- binding result [7]: binds
- binding result [8]: binds
- binding result [9]: binds
- binding result [10]: binds
- binding result [11]: binds
- binding result [12]: no binding
- binding result [13]: no binding
- Kd [16]: 20 pM
